In experiment [1] the target is T1, HepG2 cells (which express ASGR1) (Homo sapiens, UniProt P07306).
T1 construct: endogenous in cells; host or cells: HepG2
T1 sequence (P07306 1-291): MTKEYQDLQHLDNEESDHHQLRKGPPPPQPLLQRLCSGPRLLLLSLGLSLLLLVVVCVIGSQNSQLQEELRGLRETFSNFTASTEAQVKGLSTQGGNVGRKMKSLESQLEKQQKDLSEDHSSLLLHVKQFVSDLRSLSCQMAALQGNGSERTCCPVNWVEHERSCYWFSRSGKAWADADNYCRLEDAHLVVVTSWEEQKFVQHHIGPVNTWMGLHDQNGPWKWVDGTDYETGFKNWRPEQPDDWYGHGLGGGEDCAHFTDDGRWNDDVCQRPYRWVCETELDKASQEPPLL
Put plainly: Guava HepG2 cell binding screen of humanized anti-ASGR1 clones. Details: unit not given here. Particulars: humanized G2D clones (Table 5); two numbers per cell, not explained.

The target in the next experiment is T2, rat ASGR1 (Rattus norvegicus, UniProt P02706).
T2 construct: expressed in transfected cells; host or cells: CHO-S
T2 sequence (P02706 1-284): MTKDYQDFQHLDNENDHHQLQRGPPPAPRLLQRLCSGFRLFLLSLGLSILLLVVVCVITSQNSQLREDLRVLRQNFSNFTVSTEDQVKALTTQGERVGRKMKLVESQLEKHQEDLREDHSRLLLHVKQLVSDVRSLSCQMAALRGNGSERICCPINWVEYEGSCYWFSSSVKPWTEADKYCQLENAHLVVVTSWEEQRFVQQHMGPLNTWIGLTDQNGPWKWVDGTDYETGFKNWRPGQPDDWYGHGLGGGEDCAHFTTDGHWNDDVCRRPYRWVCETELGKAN
Put plainly: Cell binding to rat ASGR1 transiently expressed by CHO-S cells (GUAVA). To be noted: in words. Here is the method: Anti-human ASGR1 antibodies of this disclosure were examined for cross-reactivity with Cynomolgus macaque and rat ASGR1. Briefly, sequence encoding Cynomolgus macaque or rat ASGR1 was transiently transfected into CHO-S cells. Transfected cells were before performing cell binding assay. A total of about 1.5×10^4 transfected cells/well were added to 96-well V-bottom assay plate, incubated at 37° C., 5% CO2 for 48-72 hours, and then washed with culture medium before adding 100 μl of each ASGR1 antibody at different concentrations starting from 100 nM and 3-fold dilutions to a total of eight wells. The cells with antibody were incubated for 40 minutes at 4° C., then washed three times with 200 μl of fresh culture medium. To each well was added 50 μl PE conjugated goat anti-human Fc (SouthemBiotech) at 1:200 dilution in culture medium and then incubated at 4° C. for 20 minutes. After washing the plate once, the treated cells were resuspended in 200 μl culture medium and then the stained cells were analyzed on GUAVA® using Incyte software.

A further experiment deals with T3, rat CLEC10A ECD (Rattus norvegicus, UniProt P49301).
T3 construct: His-tagged rat CLEC10A ECD (R&D Systems) was immobilized to OCTET® Penta-His biosensors; purchased R&D Systems
T3 sequence (P49301 59-306 limits assumed): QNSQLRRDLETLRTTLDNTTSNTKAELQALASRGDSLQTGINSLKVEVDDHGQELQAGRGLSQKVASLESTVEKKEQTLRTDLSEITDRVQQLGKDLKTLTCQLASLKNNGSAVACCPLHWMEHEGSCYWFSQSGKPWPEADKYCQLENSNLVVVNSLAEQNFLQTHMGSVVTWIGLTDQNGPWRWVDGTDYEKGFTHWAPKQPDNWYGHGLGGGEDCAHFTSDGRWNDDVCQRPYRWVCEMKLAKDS
Put plainly: OCTET avidity binding to immobilized rat CLEC10A ECD. To be noted: for Binding signal to rat CLEC10A ECD: in words; for Response, binding to rat CLEC10A ECD: test antibody at 25 μg/mL. The procedure:
Analysis of binding to the rat CLEC10A ECD was performed using the OCTET® Red 96 instrument (ForteBio). His-tagged rat CLEC10A ECD (R&D Systems) was immobilized to OCTET® Penta-His biosensors and subjected to avidity binding of test antibodies in kinetics buffer (PBS+1% BSA+0.2% Tween20+0.9 mM CaCl2) at pH 7.4) in the following steps: (1) hydration of Penta-His biosensors in kinetics buffer (10 min); (2) regeneration and neutralization of Penta-His biosensor in 10 mM glycine-HCl (pH 1.5) and kinetics buffer, respectively in triplicate; (3) baseline acquisition (30 s); (4) immobilization of rat CLEC10A ECD to Penta-His biosensors at a concentration of 10 μg/mL (180 s); (5) second baseline acquisition (60 s); (6) association of test antibody at 25 μg/mL (60 s); (7) dissociation in kinetics buffer (60 s).
The interactions of test mAbs with rat CLEC10A ECD was analyzed using the OCTET® Data Analysis Software 9.0 (ForteBio).

The target of experiment [2] is T4, human ASGR1 extracellular domain (ECD) (Homo sapiens, UniProt P07306).
T4 sequence (P07306 62-291 limits assumed): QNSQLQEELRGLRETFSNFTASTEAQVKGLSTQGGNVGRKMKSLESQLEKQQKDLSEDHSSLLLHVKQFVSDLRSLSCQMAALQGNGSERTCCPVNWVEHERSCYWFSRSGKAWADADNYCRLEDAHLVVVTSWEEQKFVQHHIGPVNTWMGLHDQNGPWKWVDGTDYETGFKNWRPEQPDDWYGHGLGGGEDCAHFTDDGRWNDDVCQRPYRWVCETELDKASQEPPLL
Briefly: Effect of calcium on binding to human ASGR1 ECD (OCTET). Details: key to Ca^2+ Sensitivity during: Association / Ca^2+ Sensitivity during: Dissociation / Ca^2+ Sensitivity: N = No; Y = Yes. Here is the method: The ability of anti-human ASGR1 antibodies of this disclosure to bind to human ASGR1 in the presence or absence of calcium in binding buffer was examined. Briefly, ASGR1 antibodies were bound to immobilized human ASGR1 extracellular domain (ECD) at saturating levels and subsequently dissociated under three different conditions as follows: (a) binding and dissociation with buffer containing calcium (PBS+1% BSA+0.2% Tween20+0.9 mM CaCl2), pH 7.4); (b) binding with buffer containing calcium and dissociation with buffer lacking calcium; and (c) binding and dissociation with buffer lacking calcium. Analysis of ASGR1 antibody binding to human ASGR1 ECD was performed using the OCTET® Red 96 instrument and analyzed using the OCTET®Data Analysis Software 9.0 (ForteBio). His-tagged human ASGR1 ECD was immobilized to OCTET® Penta-His biosensors and ASGR1 antibodies were subjected to avidity binding under the conditions described above. Association with the ASGR1 ECD was measured by the rate of and increase in magnitude of signal response at a given antibody concentration. Dissociation from the ASGR1 ECD was measured as the rate of loss in signal upon removal of the antibody and further incubation with or without Ca^2+. […] Also tested were humanized antibodies hzH8K-1 and hzL4L-7.
Further analysis of the antibodies of this disclosure was to determine whether the presence of calcium was needed for binding (i.e., during association) of the antibodies to human ASGR1 ECD. […]

The test system of experiment [3] is human PBMCs cultured with ASGR1-expressing tumor cell line HepG2. Briefly: TNF-α production by human PBMC co-cultured with HepG2 (AlphaLISA). Type of experiment: cell-based. Particulars: PBMC:HepG2 5:1, 24 hours. Here is the method:
The effect on TNF-α production by human PBMCs co-cultured with ASGR1 expressing HepG2 tumor cells and in the presence of anti-ASGR1-TLR8 agonist conjugates was examined. An increase in TNF-α production by human PBMCs would indicate that myeloid cells are being activated. Briefly, peripheral blood mononuclear cells (PBMC) were isolated from normal human donor blood using SEPMATE™-50 PBMC Isolation Tubes ([…] Technologies) according to manufacturer's instructions. Isolated PBMC were cultured with the ASGR1-expressing tumor cell line HepG2 or the ASGR1-negative cell line HEK 293 at a 5:1 ratio in the presence of titrated concentrations of anti-ASGR1-TLR8 agonist conjugates (G2D-Compound 2.14, J4F-Compound 2.14, K2E-Compound 2.14, L4L-Compound 2.14, hzL4L-7-Compound 2.14, hzL4L-14-Compound 2.14, H8K-Compound 2.14, hzH8K-1-Compound 2.14, and hzH8K-10-Compound 2.14, as well as control conjugates comprised of ASGR1-mAb-A-Compound 2.14, ASGR1-mAb-B-Compound 2.14, ASGR1-mAb-C-Compound 2.14, anti-digoxin mAb-Compound 2.14, and unconjugated antibody controls). After 24 hours, cell-free supernatants were collected and stored at −80° C. prior to analysis. TNF-α levels in the cell-free supernatants were quantified using the TNF-α (human) AlphaLISA® Detection Kit (Perkin Elmer) according to manufacturer's instructions.

B1: hzG2D-1: humanized G2D clone; "G2D VL region ... of clones 1-16, 19-21, 26-29, 31, and 33 ... grafted into the human germline sequence VKI-L1 with JK4" (antibody, V domains shown)
VH: QVQLVQSGAEVKKPGASVKVSCKASGYTFTGYYMHWVRQAPGQRLEWMGRINPNNGATNYNQNFKDRVTITRDTSASTAYMELSSLRSEDTAVYYCARVNFYYWGQGTTLTVSS
VL: DIQMTQSPSSLSASVGDRVTITCKASQVINSYLSWFQQKPGKAPKSLIYRANTLVDGVPSRFSGSGSGTDFTLTISSLQPEDFATYYCLQYAEFPYTFGGGTKVEIK
modifications: Synthetic sequence hzG2D VH V109L; Synthetic sequence hzG2D VLa
Consider B1, for which the “Guava HepG2 Screen” value in experiment [1] is listed as 32/19.

B2: hzH8K-1: "humanized anti-ASGR1 antibodies hzH8K-1 and hzH8K-10 as compared to parent mouse anti-ASGR1 antibody H8K" (antibody, V domains shown)
VH: QVQLQESGPGLVKPSQTLSLTCTVSGGSISSDYAWNWIRQHPGKGLEWIGYRSYRGSTSYNPSLKSRVTISVDTSKNQFSLKLSSVTAADTAVYYCARRGYYGSSSHWYFDVWGQGTTVTVSS
VL: DIQMTQSPSSLSASVGDRVTITCRASENIYSYLAWYQQKPGKAPKLLIYNAKTLAEGVPSRFSGSGSGTDFTLTISSLQPEDFATYYCQHHYGTPLTFGGGTKVEIK
modifications: Synthetic sequence hzH8K VH; Synthetic sequence hzH8K VL
For the molecule B2, the “Cross-reactivity with rat ASGR1” value in the experiment with rat ASGR1 is on record as “not rat cross-reactive”. In the experiment with rat CLEC10A ECD, the “Binding signal to rat CLEC10A ECD” value is recorded as “even less above background binding” and the “Response, binding to rat CLEC10A ECD” value was determined as 0.0495 nm. In experiment [2], the “Ca^2+ Sensitivity” value is listed as “N”, the “Ca^2+ Sensitivity during: Association” value is “N” and the “Ca^2+ Sensitivity during: Dissociation” value is “N”. Besides, in experiment [3], the “TNF-α production from human PBMCs” value is “more efficient at inducing TNF-α production as compared to the parent antibody conjugates”.

B3: hzL4L-7: "humanized anti-ASGR1 antibodies hzL4L-7 and hzL4L-14 as compared to parent mouse anti-ASGR1 antibody L4L" (antibody, V domains shown)
VH: QVQLQESGPGLVKPSQTLSLTCTVSGYSISSDYAWNWIRQHPGKGLEWIGYISYSGSTRYNPSLKSRVTITRDTSKNQFSLKLSSVTAADTAVYYCARRYRYDEGYGMDYWGQGTTVTVSS
VL: DIQMTQSPSSLSASVGDRVTITCRASENIYSNLAWYQQKPGKAPKLLIYAATNLADGVPSRFSGSGSGTDFTLTISSLQPEDFATYYCQHFWGTPPWTFGGGTKVEIK
modifications: human IgG1/kappa constant regions; Synthetic sequence hzL4.6L VH G27Y, S70T, V71R; Synthetic sequence hzL4L VL
Take B3: in the experiment with rat ASGR1, the “Cross-reactivity with rat ASGR1” value is on record as “not rat cross-reactive”. Moreover, in the experiment with rat CLEC10A ECD, the “Binding signal to rat CLEC10A ECD” value was “No observable binding signal” and the “Response, binding to rat CLEC10A ECD” value is recorded as “— (Antibodies tested with response of <0.02 nm were below the limit of detection (—))”. For the same molecule, in experiment [2], the “Ca^2+ Sensitivity” value was “N”, the “Ca^2+ Sensitivity during: Association” value is on record as “N” and the “Ca^2+ Sensitivity during: Dissociation” value is recorded as “N”. In addition, the “Sensitivity to calcium (difference in binding signal after dissociation >±10%)” value in experiment [2] (in words) is reported as “lacking sensitivity to calcium”. The “TNF-α production from human PBMCs” value in experiment [3] is on record as “more efficient at inducing TNF-α production as compared to the parent antibody conjugates”.

Source of the values: patent US11541126B1, “Anti-ASGR1 antibody TLR8 agonist comprising conjugates and uses thereof” (Silverback Therapeutics, Inc., priority 2020, dated 2023).
